From the DeepSol protein solubility set

Experiment: soluble on expression in E. coli; label from the status in PepcDB or PDB records

Sequence | soluble on expression in E. coli
MRFAPFTRQRHHNREQIKQHPEWFPAPLKASDRRWQALAENNHFLSSDHLHNITEVAIHRLEQQLGKPYVWGGTRPDQGFDCSGLVFYAYNKILEAKLPRTANEMYHYRRATIVANNDLRRGDLLFFHIHSREIADHMGGYLGDGQFIESLRTGETIRVSRLAEPFWQDHFLGARRILTEEMIL | not soluble
MEDDAPMNLCNEQFEEIEDSPIDDNDNESFYNADGDVELEEEEVHETPKNFKNGGRFKTNMTNPKVNDLTTIEEKNEDLRSAASSRSASRPASVMSDKSFSSQFEFQSGGENAIEEYTNQVFADENKADLLFPETSKFMNGASPPKDKHHSWEPSIHHYDKQPPPDIQTNSPVFGNLNHRKNKLIPQARAKPGANDNEIVERDNDENVPTTSDKSAFITSPMNSTNHDEKTSTPKRPTNRKIGQYQGPNFDLSSIYVGSPQHQNTSISTGQQMPTSSYSHAHSETMMTNQTINESMVRRVLNGNNKNQDLFAALEEARKRRAAQPSKPDFRINTTRTRVPIKPTSARHSGNVVSSTSNDNTTAASSKDLTTSRKAMETFRQNASMADATNSNTASMTSILSTISTARTDISRSSRNHGGGFSNTSVSTVIPANNGNVSLSHGRDGRDSVSSVRTMSRASSTSTVYAGSTFSGVSKPLRIHAKRVAFGCVAVGETLRVEVEVENISDRQCLVRASTDSTTPVYQILDNKLTMVDPKKSIKFQVSFSPSSVGRYQVIMSIEVPAQNFIHKIPMWGNGGIAKFVPTSPDLQQTINQSEYAMCTSCAKRISFKISNSAGTRDGFAMIKVFDSAMRQLPDGCVAFFPAPGFIVKKKSDKRVDIRIDSSYIDLHDENNFRTSSSLSTASTTSSFQRRILPGAKFFVHVVWGEETMRTRLRLLEVRTGQHQLIDGHDFTSFQFSDEEVLRAVPVGFPAIKPEDRDLFAASYRSFFINFFTSTTEFRAATSRKKKEICSNDDSTLLETTAFRNQTFVNDVTIVPNTRFSNRK | not soluble
MKIKSIEARNISIPLNRPIHNPAFKFTHCKYTIVTVTTDEDITGWSFSFGMHHTKAVVDELAEILVGEEIDTRRLYEKMMRTQAVRWDRGGISMRALSAIDIALWDIVGKSCGLPLYRLMGCYREEIPVYYSGGHYPVDSTKTSDMLDYLEQDIGKGLDRGFSSFKIKIGGAAVNQDLERIAFCRKLIGPYRRLMVDAFCAYEADVIIPMAKKFEQYDIGFLEEPVALDDIPGCAYVAANVSMPVALGESHYTMAQFRDIINSKAARILQPDVAYVGGITGFMQYAGIAAYHGLRLAPHWCHDLSVQLALSIPQIRELEYMDQNSALFLIQKVIENPVTAKNGIVRAPEGAGHGLVLDEKAVERYLA | soluble
MGSDKIHHHHHHMNKYLNNINASYCCGCSACVHKCPKQCLRMSQDKDGFFFPIVNNREACIDCSLCAKVCPMENMVESDYPHTFYGAYNTNKTDIVNSSSGGIYPSLAKWIISQGGIVFGASLDDEHKLYHIGVSTESDIQKTIGSKYFQSEIRDTYVECKKELDKGRLVLYTGTPCQVHGLKRYLGKDYDNLYTADVICHGVPSSKMFDAYIDFLEKKHNGKLVDINFRDKKRNGWSITLRYTIEYSNDKRKDYYLINKLSEYFMAFLGGYIERESCYSCPFSSMRRPGDITMGDFWGYQFKRPDLKHDEGLSLIIVNSEHGKRIVDVLHRNGVQFNAVDEECVKASENKNLYKPTLRPEVRSVVYDELQNFGFEYIAKKYFRRTQTLRNKAKNYMPVALVNIIKKLK | not soluble
MGSDKIHHHHHHMVRQRMTGKERREQLISIGRAVFAERGFDGASVEEIAARANVSKPVVYEHFGGKEGLYAVVIDREMVKLEAMITGSLQHGRSRYRIEQAVLALLTYVEDETDGFLILVRDMRPGERRSYGTLLNDATTQVSHILGNAFTRSGLNAEYANLYGQALVGMVSMTAQWWLDERTPPKEEVAAHIVNLCWNGLTGMEADPKLTPISSAEGAIFGQEKESEA | not soluble
MWPRNDVHMDDGSMTPEDQEPVTDNDMEYNDNGEESSYSNGSSSSYNADKLSSSRPLQHKLDLSASPSRNNDLNPRVEHLIALFKDLSSAEQMDAFTRLLQESNMTNIRQLRAIIEPHFQRDFLSCLPVELGMKILHNLTGYDLLKVAQVSKNWKLISEIDKIWKSLGVEEFKHHPDPTDRVTGAWQGTAIAAGVTIPDHIQPCDLNVHRFLKLQKFGDIFERAADKSRYLRADKIEKNWNANPIMGSAVLRGHEDHVITCMQIHDDVLVTGSDDNTLKVWCIDKGEVMYTLVGHTGGVWTSQISQCGRYIVSGSTDRTVKVWSTVDGSLLHTLQGHTSTVRCMAMAGSILVTGSRDTTLRVWDVESGRHLATLHGHHAAVRCVQFDGTTVVSGGYDFTVKIWNAHTGRCIRTLTGHNNRVYSLLFESERSIVCSGSLDTSIRVWDFTRPEGQECVALLQGHTSLTSGMQLRGNILVSCNADSHVRVWDIHEGTCVHMLSGHRSAITSLQWFGRNMVATSSDDGTVKLWDIERGALIRDLVTLDSGGNGGCIWRLCSTSTMLACAVGSRNNTEETKVILLDFDAVYP | not soluble
MPRKQLKGETHDQKAQIASAFGEIEQSKIFLDKRSESAAVKMDIADLLKEIIQKQLRKDYDPEVESNIFINPERGDFEVYILKKIVKEVDLPTIEIGLDEVRQIDDSLELGDYYEEGPIKLDDYLTRKSIQIIKQSVQKKVRDLERLAVYEECLEKVGEVVAGEVYQVRPNEVIFTYNTSKDHRVELVLPKSEMMKKDNPRRTPRMKLYVKRIEREKVKVRNDDGTVEEREKPDGGMKVIVSRVDDRFLYKLFESEVPEILDGLIVIKGIARVPGERAKVAVESTSSRIDPVGATVGYRGKRIQSIVKELNNENIDVIYYTDEPQVFIARALQPAKIDPMTVHADMKTRKARVMLKPDQIKYAIGKNGNNIHLAEKLTGYEIDVYRDVIDKSLEDPNDIDIIEFREEFGDDMIYQLLDGGLDTAKKILKGGVEKIEEALLGTQKSEELFVFNKTRKPVKPKERRITDDEKRYWKKIAETIYRTVREQFNDEDLKALLDDSHERSLKGDGIDPEEIRDKETNLEHHHHHH | not soluble
MGSDKIHHHHHHMKMSWNHQYTNYGSIADDNGDEEKAENSEGAAAEKVEKQHDDDGVVVHEETDGVASSRSSHHDKQKPGETKKSGDGKMDDDDIITTARSSSRRICGSAASSSDSETADDAPLLPDEGPSHAVRLEMPGDKPASPHDRFPKTPLKTL | not soluble
MGSDKIHHHHHHMSLHYSVLASGSTGNALYIESEQTRLLVDAGLTGKAMLALFDQIHRSPEKIDGLFVTHEHSDHIKGVGIMARKYNIPLYANEKTWAAMEAKIGKIDPALKFLWEVGEVKQFGDIEVESFNVSHDAADPMFFQFAHEGKRLAHITDTGYVSDRMKGVIRGADAYIFEANHDIGMLQMGHYPWSVKRRILGDYGHVSNEDAAIAMSEVLDDRTKRIHMAHLSKDNNMKELARMSVSQTLASRDVDLSKIQLLDTDPVIPTPLLKL | not soluble
MNDVQQAINSDDIPLTDELVVSYLQDNPEFFNRNNSLMTGLRLNDEQRGTVSLVERQQQQLRQKVYGLEDEITQLMSVANHNEQLFVLYSDLYLRLLDCQSAEELLDCLHQATTELLSLSSFKLWLVSGNNTEVAHHSLSTNDCAGVMQNRLTNDEYYFGRLQESEQTLIFSKPCLGSVVLIKLTHDEQAVGFLAIGSEDAHHFDPRMDTLLLNQFKRLVAKLLHQQLSMLEHHHHHH | soluble
MGREALGKCPVCNNETTITRITCEKCNTTIEGRFDLCKFCRLTPEQKLFVDVFIKCRGNIKEVEKELGVSYPTVKNKLEDVANALGHKSEEAPVEETNRKEILDKLYEGEISVDEALELLKG | not soluble
MPHILNVTVPIPETHVLITKDEYDELIGYSLDPVWNMSDLKKKLKIASDETIKDRLLFHPRFEKELRAQGIVHYPDENFNRWRFNARKMNKFVDEHFNEIYKERIKLEHHHHHH | not soluble
MDMTYNMRNAMASSRNMEEPQYDMSTIDLTQNSMNTNYLMNGSVLTNAYNNDYIVNNRDKYTGDMISQLKIDQGIPTYSHTLPMNGTTLADTNDSLNIQGMMRTNMDTTGFDGYSHIMNYNNTQNTIQTNPITYRMEDYNNLNNDVMYINPTTGEKFSAEYVNNIPTNDSDNMLYSNNFKNNSINMNTLLNSHYNNLPYPMPIYESMNNPQMYMQHMNQKQTVNIPLQHGEKKSAARNISTVNKRRIKTKKFFPCC | not soluble
MSLSVSFIFLLVASIGAVVADSENVLVLTESNFEETINGNEFVLVKFYAPWCVHCKSLAPKYDEAADLLKEEGSDIKLAKVDATENQALASKFEVRGYPTILYFKSGKPTKYTGGRATAQIVDWVKKKSGPTVTTVESVEQLEELKGKTRVVVLGYFKDAKSDAATIYNEVADSVDDAFFAVAGSAEVAAAASLNEDGVALIRTDGDDSETSTIAEAEITNTIALKQWLHAYKLSAVTEFTHESAQEIVGGDLKKFHFLIIRKSDSSFDETIAKFTEVAKKFRAKIVFVLLDVDVEENARILEFLGVDAKNTPANRIVSLADQVEKFKPQEGEDFEAFTNSYLEGKSAQDLKAQDLPEDWNALPVKVLVASNFNEIALDETKTVFVKFYAPWCGHCKQLVPVWDELAEKYESNPNVVIAKLDATLNELADVKVNSFPTLKLWPAGSSTPVDYDGDRNLEKFEEFVNKYAGSASESETASQDHEEL | not soluble
MRFRPFTEEDLDRLNRLAGKRPVSLGALRFFARTGHSFLAEEGEEPMGFALAQAVWQGEATTVLVTRMEGRSVEALRGLLRAVVKSAYDAGVYEVALHLDPERKELEEALKAEGFALGPLVLAVRVLGSRGARGETRGVLE | soluble
SGSDVRDLNALLPAVPSLGGGGGCALPVSGAAQWAPVLDFAPPGASAYGSLGGPAPPPAPPPPPPPPPHSFIKQEPSWGGAEPHEEQCLSAFTVHFSGQFTGTAGACRYGPFGPPPPSQASSGQARMFPNAPYLPSCLESQPAIRNQGYSTVTFDGTPSYGHTPSHHAAQFPNHSFKHEDPMGQQGSLGEQQYSVPPPVYGCHTPTDSCTGSQALLLRTPYSSDNLYQMTSQLECMTWNQMNLGATLKG | soluble
MAHHHHHHMLNCFFGAELKPDGVPISFTIPKGTTLVITQCAVTSVVPPQQSTDAGASSSPAVVAKAYNPVTLCVQGHGLPTRFAVCSLSPAQHITYCPLQLLFSKPVSFVLVPQTGSTAAAAAASSSPSPAPHAGKKTGRNQKHSKTTAGAHGAGAEATAVYPTVHLTGYYERAADEDEEDGSMAMDVMESSDDGENDDLSDDE | soluble
MNIDIKEAHRRMLYLLQSFDTVCKKHDIDYWLDYGTLLGAIRHQGFIPWDTDTDVGMLRSDYALFLEKGVPELPQDIFFQTPETEPAMAPWSWLVEARLRDRHSRYVPDKKTPAEPMQFGGLQLDLFIYDWDGKYENALSNSFERNLSESRIHLRLDEVEYLDTARFEGVEFPVPSGYDAYLTRCYGDYRTFPPEEERQIPEVVAWSVLEHHHHHH | soluble
ANKNKGFEGVAWDPRRQQLLLGEERPPALYTWKSDGSNVLKGDKQSLLSRALDMRNLSSLSIDPRTGHMLALSADSHMLLEVDEQGNQVSFMTLLGGMNGLKD | not soluble
MKVFLIGANGQIGQRLVSLFQDNPDHSIRAMVRKEEQKASLEAAGAEAVLANLEGSPEEIAAAAKGCDAIIFTAGSGGSTGYDKTLLVDLDGAAKAIEAAAIAGIKRFIMVSALQAHNRENWNEALKPYYVAKHYADKILEASGLTYTIIRPG | not soluble
MKRLWKKVGSGVKNANYLKKSVEEVAKIEKGETKVVPPKYPTEKSREVSEEIKKELAMKNESLVENMNKMYIKSTDPVERWTSTKDLPTRESEFLHRNDPIWEYGFYEPPVERIPKDKLMFKEALEYLRFRQELLSDSSSPAQKKQAAEFVADHVVTSRVNAETLDDIYEYFRPFERKDKQKVVNRHALAALQDHVQGNSDERRILDEAKDVGKKIRHISNNTKFLDEYQRLEDEEKDKVREAIAQLRQEEHERLNKRLGQLGEIEKTAQEAMKKAVEEKKEK | not soluble
